“Also recorded” adds a separate entry of the source. Marks after values point to notes of the source that are not given here.
Experiments:
latent papain P13 = target: T1, latent papain P13 (Carica papaya, UniProt P00784); experiment: Latent papain reactivation assay with thiol activators at 10 μM, rates normalized to 10 μM cysteine (FIG. 18); assay type: biochemical; conditions: activator 10 μM, latent papain 1 nM, Z-Phe-Arg-AMC 2 μM; for normalized ratio rate/rate 10 μM cysteine of substrate hydrolysis after reactivation of latent papain: well buffer pH 7, no TCEP
T1 construct: purchased Sigma Aldrich (Munich, Germany); host or cells: Papaya latex (natural source)
T1 sequence (P00784 134-345): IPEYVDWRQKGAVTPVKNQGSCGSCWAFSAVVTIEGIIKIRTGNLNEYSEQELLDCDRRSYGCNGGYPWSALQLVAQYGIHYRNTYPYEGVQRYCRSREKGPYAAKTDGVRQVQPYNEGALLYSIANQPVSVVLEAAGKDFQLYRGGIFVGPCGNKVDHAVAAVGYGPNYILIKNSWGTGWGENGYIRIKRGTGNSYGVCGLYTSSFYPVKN
Procedure: All following described fluorometric assays (Examples 1-3) are based on the reaction of reversibly inactivated papain (latent papain) with an activator containing either sulfur or selenium (with the exception of TCEP). Different latent papain forms, buffer compositions and activators in various concentrations were compared. Papain was hereby transferred in buffer (standard well buffer consisted of 0.1 M phosphate pH 7, 4 mM EDTA, 0.01% Brij35 and if activators contained diselenides, 1 μM TCEP) mixed with activator and substrate inside 96 well plates (without prior washing of the plates). After reactivation, active papain hydrolyses the substrate Z-Phe-Arg-AMC (2 μM) and the resulting fluorescence was tracked every minute for 2 h. The slopes of the corresponding curves were calculated for the linear portion within the first 30 minutes and the resulting reaction rates were directly compared. Resulting reaction rates directly reflect reactivation efficiencies of each activator under each reaction condition. […] After addition of activator a fraction of latent papain is immediately reactivated in rather non-stoichiometric proportions. Complete reactivation can generally only be achieved with great excess of activator. The partial reactivation with smaller activator amounts appears almost instantaneously because the resulting reaction curve show linear progression from the start except for very low activator concentrations. After reactivation, all different latent papain forms result in the same active enzyme. If different latent papain forms show different reaction rates in identical activation assays, the efficiency of reactivation with the applied activator can be deduced. The same applies for reactivation of one latent papain form with different activators or reaction conditions.
Several thiol compounds and cysteine containing peptide activators (see Example 4.1) were compared for their potential to reactivate latent papain. To this end, the thiol compounds and cysteine containing peptide activators were utilized in reactivation assays (see Example 5, 5.2.2.2, fluorometric method 2) of papain P13 (see Example 1, 1.2) with an activator concentration of 10 μM. For thiols not completely soluble in phosphate buffer pH 7 at high concentrations, the 1 mM stock solution was prepared in DMSO, resulting in 1% DMSO in the reaction mixture. In order to normalize the observed reaction rates between assays, a 10 μM cysteine sample was additionally measured in every assay and reaction rates of the examined thiols were divided through the reaction rates produced by the 10 μM cysteine standard. Additionally, a measurement with 1 mM cysteine was performed in order to achieve maximal papain activation and therefore the maximal reaction rate within the confines of the assay. The resulting normalized rates are compared in FIG. 18.
(§1) Different assays of reactivating latent papain in solution were conducted in the course of this work. Various buffer compositions, supplements, 96 well plates, substrates, activators, concentrations as well as different latent papain forms were compared. In order to get an overview of all experiments, a standard method is described in the following and variations of this method are subsequently defined. First, the well buffer was prepared (0.1 M phosphate buffer pH 7, 4 mM EDTA, 0.01% Brij35). A 1 mM TCEP solution was prepared with 3 mM NaOH in 0.1 M Tris-HCl buffer pH 8. Papain substrate (Z-Phe-Arg-AMC or Suc-Leu-Leu-Val-Tyr-AMC) was prepared as a 200 μM solution in water and transferred equally to a PCR strip. Three serial dilutions of the activating agent with well buffer were used in the different experiments and the corresponding pipetting schemes are shown in Table 9. Papain was diluted to 0.1 μM with well buffer and transferred equally to a PCR strip. After preparation of the abovementioned solutions, TCEP (1 mM solution) was added to well buffer to yield a final TCEP concentration of 1.1 μM. […]

[1] = cited from earlier work; for pKa (H2O): published values, source mark b or d legible
[2] = target: T2, dU-triazole-PEG3-ULR dimer (21) (not fully specified)
T2 chain: ULR

[3] = target: T3, latent papain forms P20-P28 (Carica papaya, UniProt P00784); experiment: Comparison of reactivation efficiencies of latent papain forms with activator dU-triazole-PEG3-ULR (21) (FIG. 15, 16); assay type: biochemical; conditions: for normalized rate/rate blank after reactivation, in words / reaction rate of substrate hydrolysis after reactivation (not normalized), in words: activator dU-triazole-PEG3-ULR (21) 1-15 nM; for normalized rate/rate blank after reactivation, in words: papain 1 nM (FIG. 16); for reaction rate of substrate hydrolysis after reactivation (not normalized), in words: papain 1 nM (FIG. 15)
T3 construct: purchased Sigma Aldrich (Munich, Germany); host or cells: Papaya latex (natural source)
T3 sequence (P00784 134-345): T1 sequence (P00784 134-345)
Procedure: In order to reversibly deactivate commercially purchased papain, reactions with different thiosulfonate derivatives were carried out and different latent papain versions were produced. Papain was first incubated with cysteine to yield complete activated papain which could then be incubated and deactivated with the specific thiosulfonate solutions. A mixture of papain disulfides is otherwise to be expected. An additional step was introduced in this work with the goal of further reduction of residual enzymatic activity. After incubation with either thiosulfonate derivative, papain was thus incubated with equimolar amounts of the more efficient irreversible inhibitor E64 (see Example 5, 5.2.1.2) in order to deactivate possible unmodified papain traces. The excess of small molecules was then separated by Sephadex G25 spin columns. Different thiosulfonates were synthesized (data not shown) and used to produce different latent papain forms, to the authors best knowledge yet unknown to literature (P23, P24 and P26), with their reactivation efficiency directly compared. The four thiosulfonates S-benzyl (1)-, S-propyl (2)-, S-(2-acetic acid) (3)- and S-(2-aminoethyl) (5)-ethanethiosulfonate are shown in FIGS. 6 and 13.
All latent papain forms were synthesized as described (see Example 5, 5.2.1.2) and concentrations of the stock solutions were determined (see Example 5, 5.2.1.3) and are shown in FIG. 14. In favor of allowing for precise comparison of all different papain forms, papain P20-28 were produced and processed simultaneously, whereas production of P28 differed in lack of pre-activation with cysteine and incubation with E64 in order to examine if those two steps are indeed affecting the latent papain quality (P20 vs. P28).
The successfully produced latent papain forms were then utilized in a reactivation assay in accordance with the method of the invention (see Example 5, 5.2.2.2), fluorometric method 1) with the selenocysteine containing activator dU-triazole-PEG3-ULR (21) in concentrations from 1 nM-15 nM. The resulting reaction rates of every papain and every activator concentration are directly compared in FIG. 15.
On second look, it becomes clear that the calculated rates have to be considered in relation to the residual papain activity. Without activator present, the rates of papain differ greatly between the latent derivatives. This must be due solely to their chemical properties and not to a result of remaining active papain after incubation with thiosulfonate, because subsequent incubation with equimolar amounts of E64 inhibitor will inevitably deactivate remaining active papain irreversibly (see Example 5, 5.2.1.2). In order to normalize the presented reaction rates, they were divided through the reaction rate of the corresponding residual activity (blank value) and results are shown in FIG. 16.
as §1

## O=[N+]([O-])c1ccc(S)nc1 [2-mercapto-5-nitropyridine, 2-Mercapto-5-nitropyridine]
Latent papain P13; pH 7
  reaction rate compared to L-cysteine: less than 15%
[1]
  pKa of thiol, as discussed in text: 7.1

## Sc1ccc(Br)cc1 [4-Bromothiophenol]
[1]
  pKa (H2O): 6.0^b

## COc1ccc(S)cc1 [4-Methoxythiophenol]
[1]
  pKa (H2O): 6.8^b

## SCc1ccccc1 [benzyl mercaptan, Benzylmercaptan]
Latent papain P13
  normalized ratio rate/rate 10 μM cysteine of substrate hydrolysis after reactivation of latent papain: 1.69
[1]
  pKa (H2O): 9.4^b

## O=S(=O)(CCS)CCS [bis(2-mercaptoethyl) sulfone]
Latent papain P13
  normalized ratio rate/rate 10 μM cysteine of substrate hydrolysis after reactivation of latent papain: 3.17
[1]
  pKa of thiol, as discussed in text: 7.9

B1: latent papain P23 (-S-S-(CH2)2-NH2) (protein)
chain: T1 sequence (P00784 134-345)
[2]
  reaction rate of Z-Phe-Arg-AMC hydrolysis after reactivation of latent papain (1 nM) with activator 1-15 nM: papain P23, containing the positively charged amino group, was found to be by far the most efficiently reactivated latent papain form

B2: P20: latent papain, methyl mixed disulfide, with cysteine pre-activation and E64 (protein)
chain: T1 sequence (P00784 134-345)
[3]
  normalized rate/rate blank after reactivation, in words: highest of all papain forms; also recorded: twice as high as P28
[3]; without activator (blank), papain 1 nM
  residual activity rate compared to P23: 25%

B3: latent papain P25 (-S-S-(CH2)2-CH3) (protein)
chain: T1 sequence (P00784 134-345)
[2]
  normalized ratio rate/rate blank of substrate hydrolysis after reactivation of latent papain (1 nM) with activator 1-15 nM: The second aliphatic residue of P25 showed surprisingly low reactivation potential towards the activator

B4: latent papain P24 (-S-S-CH2-COOH) (protein)
chain: T1 sequence (P00784 134-345)
[2]
  normalized ratio rate/rate blank of substrate hydrolysis after reactivation of latent papain (1 nM) with activator 1-15 nM: featured low normalized rates as seen for P24
  reaction rate of Z-Phe-Arg-AMC hydrolysis after reactivation of latent papain (1 nM) with activator 1-15 nM: Papain P24 with its negatively charged residue showed reaction rates close to Papain P20 with the methyl residue

B5: P23: latent papain form with positively charged aminoethyl disulfide residue (protein)
chain: T1 sequence (P00784 134-345)
[3]
  reaction rate of substrate hydrolysis after reactivation (not normalized), in words: by far the most efficiently reactivated latent papain form

B6: P25: latent papain form with propyl disulfide residue (protein)
chain: T1 sequence (P00784 134-345)
[3]
  normalized rate/rate blank after reactivation, in words: surprisingly low reactivation potential

B7: P24: latent papain form with negatively charged acetic acid disulfide residue (protein)
chain: T1 sequence (P00784 134-345)
[3]
  normalized rate/rate blank after reactivation, in words: low normalized rates

B8: P26: latent papain form with benzyl disulfide residue (protein)
chain: T1 sequence (P00784 134-345)
[3]
  reaction rate of substrate hydrolysis after reactivation (not normalized), in words: greatly reduced rates
  normalized rate/rate blank after reactivation, in words: third highest normalized rate values

B9: latent papain P26 (S-S-CH2-C6H5) (protein)
chain: T1 sequence (P00784 134-345)
[2]
  normalized ratio rate/rate blank of substrate hydrolysis after reactivation of latent papain (1 nM) with activator 1-15 nM: papain P26 showed the third highest normalized rate values
  reaction rate of Z-Phe-Arg-AMC hydrolysis after reactivation of latent papain (1 nM) with activator 1-15 nM: The papain variant P26 with its benzyl residue showed greatly reduced rates when compared to all other variants
